Experimental data published in patent US20220324938A1 (published 2022).
Blank lines part the entries; values can stand above or below the binder they belong to.

Assays:
Experiment in all cases: multimer staining
[1] = molecular target: T1, MART1 peptide on HLA-B*18:01 (human)
T1 peptide: EEAAGIGIL

[2] = molecular target: T2, MAGE-A1 peptide on HLA-B*07:02 (human)
T2 peptide: RVRFFFPSL

[3] = molecular target: T3, MAGE-A3 peptide on HLA-B*18:01 (human)
T3 peptide: MEVDPIGHLY

[4] = molecular target: T4, SSX2 peptide on HLA-A*02:01 (human)
T4 peptide: KASEKIFYV

binding result [1]: recognises
B1: B*18:01/MART125-33 TCR (TCR, V domains shown)
Valpha: GQNIDQPTEMTATEGAIVQINCTYQTSGFNGLFWYQQHAGEAPTFLSYNVLDGLEEKGRFSSFLSRSKGYSYLLLKELQMKDSASYLCAVYGGATNKLIFGTGTLLAVQP
Vbeta: NAGVMQNPRHLVRRRGQEARLRCSPMKGHSHVYWYRQLPEEGLKFMVYLQKENIIDESGMPKERFSAEFPKEGPSILRIQQVVRGDSAAYFCASSPHAGGVDEKLFFGSGTQLSVL

binding result [2]: recognises
B2: B*07:02/MAGE-A1289-297 TCR (TCR, V domains shown)
Valpha: AQKVTQAQTEISVVEKEDVTLDCVYETRDTTYYLFWYKQPPSGELVFLIRRNSFDEQNEISGRYSWNFQKSTSSFNFTITASQVVDSAVYFCALSESYSGAGSYQLTFGKGTKLSVIP
Vbeta: DTGVSQNPRHKITKRGQNVTFRCDPISEHNRLYWYRQTLGQGPEFLTYFQNEAQLEKSRLLSDRFSAERPKGSFSTLEIQRTEQGDSAMYLCASSLASGSNQPQHFGDGTRLSIL

binding result [3]: recognises
B3: B*18:01/MAGE-A3167-176 TCR (TCR, V domains shown)
Valpha: AQKVTQAQTEISVVEKEDVTLDCVYETRDTTYYLFWYKQPPSGELVFLIRRNSFDEQNEISGRYSWNFQKSTSSFNFTITASQVVDSAVYFCALEVRSSASKIIFGSGTRLSIRP
Vbeta: GAVVSQHPSWVICKSGTSVKIECRSLDFQATTMFWYRQFPKQSLMLMATSNEGSKATYEQGVEKDKFLINHASLTLSTLTVTSAHPEDSSFYICSANPRTTLYEQYFGPGTRLTVT

binding result [4]: recognises
B4: A*02:01/SSX241-49 TCR (TCR, V domains shown)
Valpha: KQEVTQIPAALSVPEGENLVLNCSFTDSAIYNLQWFRQDPGKGLTSLLLIQSSQREQTSGRLNASLDKSSGRSTLYIAASQPGDSATYLCAVEPMEYGNKLVFGAGTILRVKS
Vbeta: DGGITQSPKYLFRKEGQNVTLSCEQNLNHDAMYWYRQDPGQGLRLIYYSQIVNDFQKGDIAEGYSVSREKKESFPLTVTSAQKNPTAFYLCASSALFSGANVLTFGAGSRLTVL
